According to patent US7572600B2, “Enzymatic activities in chemokine-mediated inflammation” (Chemocentryx, Inc., priority 2004, dated 2009):
Like-named read-outs stand apart in the source and are kept apart here. Where no end group is shown, it is not given here.

Assays:
FPRL1 = target: T1, FPRL1 (Homo sapiens, UniProt P25090); assay: Receptor signaling (calcium mobilization) in L1.2-FPRL1 cells; type: cell-based; parameters: expressed in transfected cells; settings: for Designation and FPRL1 Activity: SHAAGtide and truncated/other variants; for calcium mobilization in the FPRL1 transfectant: L1.2 cells stably expressing human FPRL1, undigested
T1 sequence (P25090 1-351): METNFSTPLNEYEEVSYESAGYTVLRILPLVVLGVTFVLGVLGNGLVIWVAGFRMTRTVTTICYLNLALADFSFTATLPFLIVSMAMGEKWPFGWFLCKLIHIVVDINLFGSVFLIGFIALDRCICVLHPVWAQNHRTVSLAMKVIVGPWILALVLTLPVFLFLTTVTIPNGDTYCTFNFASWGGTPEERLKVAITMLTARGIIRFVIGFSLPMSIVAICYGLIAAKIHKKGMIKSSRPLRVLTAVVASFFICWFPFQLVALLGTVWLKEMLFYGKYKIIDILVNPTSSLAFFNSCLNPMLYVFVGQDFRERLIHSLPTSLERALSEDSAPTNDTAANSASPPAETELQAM
Protocol: (§1) Receptor signaling assay. For individual measurements, cells were loaded for 45 min at room temperature with 2 μM indo-1/AM (Invitrogen, Carlsbad Calif.) in culture medium, then washed with 10 ml PBS and resuspended at 10^6 cells/ml in HBSS containing 0.1% BSA. Cytosolic calcium levels were determined using a Photon Technology International fluorimeter (excitation at 350 nm, ratio of dual emission at 400 and 490 nm). For measuring calcium dose responses, cells were analyzed with a Fluorometric Imaging Plate Reader 384 (FLIPR^384) (Molecular Devices, Sunnyvale, Calif.). Cells were loaded for 1 hr at 37° C. with 5 μM fluo-4 in HBSS with 0.1% BSA, then washed, transferred to black-wall 96-well plates, and subsequently excited at 505 nm with emission recorded at 530 nm with a standard protocol provided by the manufacture. Cells were stimulated with agonists 20 s after the monitoring of fluorescence began. Data were analyzed and plotted in arbitrary units of fluorescence using Prism. To ensure that responses were specific to FPRL1, we utilized a selective small-molecule antagonist of human FPRL1, generated by ChemoCentryx, which was optimized from a high throughput compound library screening approach.
Since FPRL1 has been reported to interact with low affinity and/or potency with a spectrum of potential pathogenic ligands of viral, bacterial and endogenous origin, we performed comparative functional analyses to determine the precise functional domain for the SHAAGtide (FIG. 14). SHAAGtides containing N-terminal and C-terminal truncations and extensions were synthesized, and potencies for receptor signaling in L1.2-FPRL1 cells were tested. […] After removal of the N-terminal amino acid (Met) from SHAAGtide, its potency is reduced approximately 10 fold. Removal of the first two N-terminal amino acids (Met-Leu) totally abolished SHAAGtide's activity on FPRL1. Conversely, removal of the C-terminal three amino residues (AAG) from SHAAGtide had no effect on its activity on FPRL1. Removal of the C-terminal six residues (LSHAAG) reduced the peptide's potency only 3-fold. Many other purported naturally-occurring FPRL1 ligands, including serum amyloid A (SAA), beta-amyloid protein 42, lipoxin A4 and the bacterial tripeptide fMLP were tested.

human neutrophils = assay: Calcium mobilization in freshly isolated human neutrophils; type: cell-based
Protocol: (§2) Calcium Mobilization Assay. Cells were loaded for 1 hour with 2 μM indo-1/AM dye (Molecular Probes, Eugene, Oreg.) in culture medium, then washed with 10 ml PBS and resuspended at 10^6/ml in HBSS containing 1% FBS. Cytosolic calcium responses were determined using a Photon Technology International (Lawrenceville, N.J.) fluorimeter, with excitation at 350 nm and dual emission at 400 and 490 nm. Alternatively, cells were loaded with 5 μg/ml Fluo-4 AM dye (Molecular Probes, Eugene, Oreg.), then washed and analyzed on a Fluorometric Imaging Plate Reader 384 (FLIPR^384 Molecular Devices, Sunnyvale, Calif.), with 505 nm excitation and 530 nm emission.
as §1

THP-1 cells = assay: THP-1 chemotaxis assay; type: cell-based, human; settings: for EC50: THP-1 cells
Protocol: Chemotaxis assay. L1.2-CCR1 transfectants, THP-1 cells, human monocytes and human neutrophils were collected by centrifugation and resuspended in HBSS containing 0.1% BSA. Chemotaxis assays were performed in 96-well ChemoTx® microplates (Neuroprobe, Rockville, Md.) as follows. Chemokines were added to the lower wells (final volume 29 μL), and 20 μL of cell suspension (5×10^6 cells/mL) was added to the polycarbonate filter (3 μm pore size for neutrophils, 5 μm for other 3 cell types). After incubation at 37° C. in the presence of 5% CO2 for 1 hr (neutrophils), 90 min (monocytes) or 2 h (THP-1 and L1.2-CCR1), cells were removed from the upper surface of the filter by scraping. Cells that migrated into the lower chamber were quantified by using the CyQuant cell proliferation assay kit (Molecular Probes, Eugene, Oreg.) and analyzed with a Tecan (Durham, N.C.) fluorimeter (excitation at 480 nm, emission at 530 nm). Data were analyzed and plotted in arbitrary units of fluorescence using Prism (GraphPad Software, San Diego, Calif.).

human monocytes = assay: Calcium mobilization in freshly isolated human monocytes; type: cell-based; settings: undigested chemokine or peptide, 100 nM (CCL23β up to 250 nM)
Protocol: as §2, §1

CCR1 [1] = target: T2, CCR1 (Homo sapiens, UniProt P32246); assay: Competition binding with 125I-MIP-1α on human monocytes; parameters: endogenous in cells; host or cells: human CD14+ monocytes from buffy coats
T2 sequence (P32246 1-355): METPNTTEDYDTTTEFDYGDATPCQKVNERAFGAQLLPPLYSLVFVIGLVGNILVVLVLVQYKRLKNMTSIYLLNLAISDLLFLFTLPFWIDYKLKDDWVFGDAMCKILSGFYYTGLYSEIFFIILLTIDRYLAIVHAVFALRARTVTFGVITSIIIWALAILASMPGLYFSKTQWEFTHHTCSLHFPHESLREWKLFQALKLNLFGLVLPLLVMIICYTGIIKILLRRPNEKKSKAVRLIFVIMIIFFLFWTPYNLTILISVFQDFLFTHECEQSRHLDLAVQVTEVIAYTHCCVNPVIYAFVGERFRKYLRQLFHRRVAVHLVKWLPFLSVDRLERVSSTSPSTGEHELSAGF
Protocol: Binding assay. Competition binding studies were conducted using monocytes, L1.2-CCR1 or L1.2-FPRL1 cells. Cells were incubated for 3 hr at 4° C. with ^125I-MIP-1α (final concentration ˜0.05 nM) or ^125I-WKYMVm (final concentration ˜0.01 nM) in buffer (25 mM HEPES, 140 mM NaCl, 1 mM CaCl2, 5 mM MgCl2 and 0.2% BSA, adjusted to pH 7.1) in the presence of increasing amounts of unlabeled chemokine. Reactions were aspirated onto PEI-treated GF/B glass filters using a cell harvester (Packard). Filters were washed twice (25 mM HEPES, 500 mM NaCl, 1 mM CaCl2, 5 mM MgCl2, adjusted to pH 7.1). Scintillant (MicroScint-10; 35 μl) was added to the filters and counted in a Packard Topcount scintillation counter. Data were analyzed and plotted using Prism (GraphPad Software, San Diego, Calif.).

CCR1 [2] = target: T2, CCR1; assay: Calcium mobilization in murine L1.2 cells expressing human CCR1; type: cell-based; parameters: expressed in transfected cells; host or cells: murine L1.2 cells (G-418 selected transfectant); settings: L1.2-CCR1 cells
Protocol: as §2, §1

[3] = undigested chemokine or peptide (100 nM)
[4] = 10 nM input chemokine, after digestion with proteases and fluids
[5] = 10 nM, undigested or recombinant chemokine
[6] = chemokine after digestion with PMN sup #1, read-out: EC50, chemotaxis
[7] = chemokine after digestion with chymase, read-out: EC50, chemotaxis

Molecule: LWRRKIGPQMTLSH [CCXP11]
- Designation and FPRL1 Activity (FPRL1): Moderate

Molecule: 1-42 substrate peptide: synthetic 42-residue peptide consisting of the CCL23β N-terminal (1-24) and SHAAGtide (25-42) domains (MKVSVAALSCLMLVTALGSQARVTKDAETEFMMSKLPLENPV)
- calcium mobilization in the FPRL1 transfectant (FPRL1): unable to induce calcium mobilization

Molecule: MLWRRKIGPQM [CCXP8]
- Designation and FPRL1 Activity (FPRL1): Moderate

Molecule: IGPQMTLSHAAG [CCXP4]
- Designation and FPRL1 Activity (FPRL1): Low activity

Molecule: WRRKIG [CCXP10]
- Designation and FPRL1 Activity (FPRL1): Low activity

Molecule: RRKIGPQMTLSHAAG [CCXP2]
- Designation and FPRL1 Activity (FPRL1): Low activity

Molecule: MLWRRKIGPQMTLSH [CCXP3]
- Designation and FPRL1 Activity (FPRL1): High activity

Molecule: CCL5/RANTES: traditional CCR1 ligand chemokine
- calcium mobilization (human neutrophils; [3]): not
- EC50 (THP-1 cells; 2 hr, recombinant undigested chemokine, read-out: EC50, chemotaxis): 500 pM

Molecule: WRRKIGPQM [CCXP9]
- Designation and FPRL1 Activity (FPRL1): Low activity

Molecule: MLWRRKIGPQMT [CCXP5]
- Designation and FPRL1 Activity (FPRL1): Moderate

Molecule: WRRKIGPQMTLSHAAG [CCXP7]
- Designation and FPRL1 Activity (FPRL1): Low activity

Molecule: MLWRRKIGPQMTLSHAAY [CCXP6]
- Designation and FPRL1 Activity (FPRL1): High activity

B1: CCL3/MIP-1α: traditional CCR1 ligand chemokine; unlabelled homologous competitor in binding (protein)
chain: ADTPTACCFSYTSRQIPQNFIADYFETSSQCSKPGVIFLTKRSRQVCADPSEEWVQKYVSDLELSA
- calcium mobilization (human neutrophils; [3]): not and only moderate calcium responses

B2: CCL23/CKβ8: recombinant full-length human chemokine CCL23 (22-120), 99-residue protein (protein, listed as Homo sapiens)
chain: RVTKDAETEFMMSKLPLENPVLLDRFHATSADCCISYTPRSIPCSLLESYFETNSECSKPGVIFLTKKGRRFCANPSDKQVQVCMRMLKLDTRIKTRKN
- calcium mobilization (human monocytes): strong calcium responses
- inhibition of 125I-MIP-1α binding (CCR1 [1]): moderate competitors
- calcium mobilization (CCR1 [2]; [4]): uniformly active
- calcium mobilization (CCR1 [2]; [5]): either not active or weakly active
- EC50 (THP-1 cells; [6]): 150 pM
- EC50 (THP-1 cells; [7]): 50 pM
- EC50 (THP-1 cells; chemokine after digestion with synovial fluid, read-out: EC50, chemotaxis): 250 pM
- fold decrease of EC50 by chymase (THP-1 cells; THP-1 chemotaxis): 50 fold

B3: CCL15Δ24/LKN-1: recombinant CCL15/MIP-1δ lacking the N-terminal 24 residues (68aa) (protein)
chain: SFHFAADCCTSYISQSIPCSLMKSYFETSSECSKPGVIFLTKKGRQVCAKPSGPGVQDCMKKLKPYSI
- calcium mobilization (human neutrophils; [3]): respond
- calcium mobilization (human neutrophils; undigested chemokine or peptide (100 nM), listed as CCL15 Δ24/leukotactin): only moderate calcium responses
- calcium mobilization (CCR1 [2]; [5]): substantially greater response

B4: CCL23β: alternatively spliced form of CCL23, 116-residue protein; recombinant, R&D Systems special order (protein, listed as Homo sapiens)
chain: MKVSVAALSCLMLVTALGSQARVTKDAETEFMMSKLPLENPVLLDMLWRRKIGPQMTLSHAAGFHATSADCCISYTPRSIPCSLLESYFETNSECSKPGVIFLTKKGRRFCANPSDKQVQVCMRMLKLDTRIKTRKN
- calcium mobilization (human monocytes): very weak responses
- inhibition of 125I-MIP-1α binding (CCR1 [1]): lowest binding activity
- calcium mobilization in the FPRL1 transfectant (FPRL1): unable to induce calcium mobilization

B5: CCL15/MIP-1δ: recombinant full-length human chemokine CCL15 (92aa) (protein, listed as Homo sapiens)
chain: QFINDAETELMMSKLPLENPVVLNSFHFAADCCTSYISQSIPCSLMKSYFETSSECSKPGVIFLTKKGRQVCAKPSGPGVQDCMKKLKPYSI
- calcium mobilization (human neutrophils; digestions at 30-50 nM): induced calcium mobilization
- calcium mobilization (CCR1 [2]; [4]): greater amount of calcium
- calcium mobilization (CCR1 [2]; [5]): little calcium mobilization
- fold increase in chemokine potency after cleavage (THP-1 cells; THP-1 cell migration, cleavage by chymase or synovial fluid): approximately 1000 fold
- EC50 (THP-1 cells; after cleavage by chymase or synovial fluid, read-out: EC50, cell migration): 50 to 60 pM
- EC50 (THP-1 cells; [6]): 250 pM
- EC50 (THP-1 cells; [7]): 50 pM
